Results on eleven substances are retold here after paper PMC12337344.

The target of assay [1] is G2L4 RT (Pseudomonas aeruginosa group II intron-like reverse transcriptase), full-length, as crystallised (Pseudomonas aeruginosa). Briefly: SEC; size-exclusion chromatography comparing G2L4 RT to GII RT (SI Appendix, Fig. S1A). (In gel filtration, larger molecules generally elute earlier.)
For assay [2], the target named is G2L4 RT without the N-terminal MBP tag (Pseudomonas aeruginosa). Briefly: not stated; dimer state of G2L4 RT after removal of the MBP tag and after deletion of residues 401 to 411 (SI Appendix, Fig. S10 A and B).
Assay [3] addresses MBP-tagged wild-type G2L4 RT (Pseudomonas aeruginosa). Briefly: SEC; gel filtration profiles of MBP-tagged WT and RT3a mutant G2L4 RTs (SI Appendix, Fig. S4 A and B).
For assay [4] the target is unchanged. Briefly: native gel or EMSA; nondenaturing gel of WT and mutant G2L4 RT proteins; proportions running as monomer or dimer (SI Appendix, Fig. S10C). (In general: In EMSA bound probe runs differently from free probe, usually more slowly.)
Assay [5] has as its target MBP-tagged G2L4 RT R191E/I202E (Pseudomonas aeruginosa). The assay can be described thus: SEC; gel filtration profiles of MBP-tagged WT and RT3a mutant G2L4 RTs (SI Appendix, Fig. S4 A and B).
The target of assay [6] is G2L4 RT NTE mutant (R12A, Y15A, R19A) (Pseudomonas aeruginosa). The assay can be described thus: native gel or EMSA; nondenaturing gel of WT and mutant G2L4 RT proteins; proportions running as monomer or dimer (SI Appendix, Fig. S10C).
Assay [7] concerns the target G2L4 RT with deletion of C-terminal residues 401 to 411 (Pseudomonas aeruginosa). The assay can be described thus: not stated; dimer state of G2L4 RT after removal of the MBP tag and after deletion of residues 401 to 411 (SI Appendix, Fig. S10 A and B).
The target in assay [8] is G2L4 RT NTE + Thumb mutant (R12A, Y15A, R398A) (Pseudomonas aeruginosa). The assay can be described thus: native gel or EMSA; nondenaturing gel of WT and mutant G2L4 RT proteins; proportions running as monomer or dimer (SI Appendix, Fig. S10C).
Assay [9] deals with G2L4 RT Thumb mutant (R397A, R398A, R404A) (Pseudomonas aeruginosa). The description is as above.
In assay [10] the target is G2L4 RT with an A instead of an I at the active site (Pseudomonas aeruginosa). The assay is described as above.
Assay [11] has as its target MBP-tagged G2L4 RT R190E/I202E (Pseudomonas aeruginosa). Briefly: SEC; gel filtration profiles of MBP-tagged WT and RT3a mutant G2L4 RTs (SI Appendix, Fig. S4 A and B).
Assay [12] deals with MBP-tagged G2L4 RT R190E/R191E (Pseudomonas aeruginosa). The assay is described as above.

Bounds are passed on as bounds.

One may read the stoichiometry N as a count of units in the complex or per binding partner. With “G2L4 RT (Pseudomonas aeruginosa group II intron-like reverse transcriptase), full-length, as crystallised (enzyme)”, the stoichiometry N in assay [1] turned out to be 2.

In turn, “G2L4 RT without the N-terminal MBP tag (enzyme)” showed a stoichiometry N in assay [2] of 2.

In turn, MBP-tagged wild-type G2L4 RT (enzyme) came in with a stoichiometry N in assay [3] of 2. The substance also registered a percent of the protein running as monomers in assay [4] of under 7%.

In [5], MBP-tagged G2L4 RT R191E/I202E (enzyme) showed a stoichiometry N of 2.

“G2L4 RT NTE mutant (R12A, Y15A, R19A) (enzyme)”: the percent of the protein running as monomers in [6] is 12%.

In the case of “G2L4 RT with deletion of C-terminal residues 401 to 411 (domain or fragment)”, the stoichiometry N in assay [7] is 2.

Turning to “G2L4 RT NTE + Thumb mutant (R12A, Y15A, R398A) (enzyme)”, in assay [8], the percent of the protein running as monomers stood at 54%.

For the substance “G2L4 RT Thumb mutant (R397A, R398A, R404A) (enzyme)”, the percent of the protein running as monomers in assay [9] stood at 35%.

On to “G2L4 RT with an A instead of an I at the active site (enzyme)”, for which the percent of the protein running as monomers in assay [10] was under 7%.

MBP-tagged G2L4 RT R190E/I202E (enzyme) displayed a stoichiometry N in assay [11] of 2.

As to MBP-tagged G2L4 RT R190E/R191E (enzyme), in [12], the stoichiometry N is 2.
